# Measured values as given in paper doi:10.1101/2021.05.09.442808 (bioRxiv, 2021).
# B1: S2P6 Fab fragment (Fab, V domains shown)
# VH: EVQLVQSGAEVKKPGASVKVSCKASGYTFTSQYMHWVRQAPGQGLEWIGIINPSGVHTSYAQKFQGRVTLTRDTSTSTLYMELSSLRSEDTAVYYCARGSPKGAFDYWGQGTLVTVSS
# VL: not shown
# Legend:
# [1] = target: SARS-CoV S 2P prefusion-stabilized ectodomain trimer (SARS-CoV, Urbani (AAP13441, named for …, UniProt P59594, stabilised)); experiment: SPR
# [2] = target: MERS-CoV S 2P prefusion-stabilized ectodomain trimer (MERS-CoV, strain of ectodomain not …, stabilised); experiment: SPR
binder,measurement,setting,value
B1,Kd,[1],7 nM
same,Kd,[2],12 nM
